Assay results reported in patent publication US20200231645A1.

Legend:
[1] = molecular target: PCSK9 (UniProt Q8NBP7); test: cell-based or functional assay
[2] = molecular target: human GLP-1 receptor (human) (UniProt P43220); test: cell-based or functional assay
Chain of human GLP-1 receptor (human) (P43220 24-463): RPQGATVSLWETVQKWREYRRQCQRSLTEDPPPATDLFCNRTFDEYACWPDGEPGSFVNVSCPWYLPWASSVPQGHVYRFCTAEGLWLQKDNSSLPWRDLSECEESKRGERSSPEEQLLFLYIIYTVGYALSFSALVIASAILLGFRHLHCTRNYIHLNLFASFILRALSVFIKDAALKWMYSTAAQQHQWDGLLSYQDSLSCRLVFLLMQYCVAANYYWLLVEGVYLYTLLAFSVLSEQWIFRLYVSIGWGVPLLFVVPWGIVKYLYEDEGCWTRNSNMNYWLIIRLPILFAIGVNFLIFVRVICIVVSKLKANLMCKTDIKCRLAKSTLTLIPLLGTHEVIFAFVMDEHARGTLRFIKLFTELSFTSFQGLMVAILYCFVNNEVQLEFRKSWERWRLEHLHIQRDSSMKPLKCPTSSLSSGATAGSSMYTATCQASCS

Row | LDL-R expression in mouse liver, Percentage of baseline (%), dose of inhibitor 22 nmol/kg [1] | EC50 (pM) 0% HSA [2] | EC50 (pM) 1% HSA [2] | Substance
1 | 157% | – | – | Alirocumab (antibody)
2 | – | 7.3 pM | 210 pM | Semaglutide (peptide)
